Kd data for one molecule are collected here from patent US20220332804A1 (CSL INNOVATION, published 2022).

Holding throughout (assay): SPR, antibody captured, C2 as analyte;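 further: biacore SPR at 37 °C, anti-C2 mAbs captured via goat anti-human IgG on CM5 chips, double-referenced sensorgrams fit to a 1:1 kinetic or steady-state model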
On the technique in general: In SPR one partner is held on a chip, and binding of the other changes the refractive index at the surface.

Test [1] addresses T1, human C2 V455A (human, UniProt P06681 21-752).
T1 sequence: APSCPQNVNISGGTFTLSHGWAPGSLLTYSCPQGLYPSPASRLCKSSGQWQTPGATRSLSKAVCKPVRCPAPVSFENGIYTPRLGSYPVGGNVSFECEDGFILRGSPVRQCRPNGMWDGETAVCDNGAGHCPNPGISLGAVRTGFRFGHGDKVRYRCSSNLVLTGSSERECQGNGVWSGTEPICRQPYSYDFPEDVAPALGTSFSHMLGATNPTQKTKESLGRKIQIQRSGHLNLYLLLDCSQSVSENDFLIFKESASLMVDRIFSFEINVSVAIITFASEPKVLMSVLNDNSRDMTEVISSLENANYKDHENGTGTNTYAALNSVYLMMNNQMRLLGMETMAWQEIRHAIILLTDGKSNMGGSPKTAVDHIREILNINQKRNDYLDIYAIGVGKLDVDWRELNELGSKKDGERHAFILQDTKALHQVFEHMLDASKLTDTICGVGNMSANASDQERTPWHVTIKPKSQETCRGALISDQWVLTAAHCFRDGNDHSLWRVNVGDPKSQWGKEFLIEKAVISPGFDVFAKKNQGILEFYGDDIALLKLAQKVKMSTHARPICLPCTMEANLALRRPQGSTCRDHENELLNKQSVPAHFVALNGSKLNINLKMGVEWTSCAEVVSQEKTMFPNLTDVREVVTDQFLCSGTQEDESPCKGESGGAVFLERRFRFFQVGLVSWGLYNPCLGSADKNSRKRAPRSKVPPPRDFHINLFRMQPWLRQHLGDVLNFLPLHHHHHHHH

Test [2] concerns the target T2, human complement C2 (wild type) (human, UniProt P06681 21-752).
T2 construct: Full-length human C2 (NP_000054) with C-terminal 8x His tag, secreted from Expi293F cells and purified from the supernatant; also called WT; huC2
T2 sequence: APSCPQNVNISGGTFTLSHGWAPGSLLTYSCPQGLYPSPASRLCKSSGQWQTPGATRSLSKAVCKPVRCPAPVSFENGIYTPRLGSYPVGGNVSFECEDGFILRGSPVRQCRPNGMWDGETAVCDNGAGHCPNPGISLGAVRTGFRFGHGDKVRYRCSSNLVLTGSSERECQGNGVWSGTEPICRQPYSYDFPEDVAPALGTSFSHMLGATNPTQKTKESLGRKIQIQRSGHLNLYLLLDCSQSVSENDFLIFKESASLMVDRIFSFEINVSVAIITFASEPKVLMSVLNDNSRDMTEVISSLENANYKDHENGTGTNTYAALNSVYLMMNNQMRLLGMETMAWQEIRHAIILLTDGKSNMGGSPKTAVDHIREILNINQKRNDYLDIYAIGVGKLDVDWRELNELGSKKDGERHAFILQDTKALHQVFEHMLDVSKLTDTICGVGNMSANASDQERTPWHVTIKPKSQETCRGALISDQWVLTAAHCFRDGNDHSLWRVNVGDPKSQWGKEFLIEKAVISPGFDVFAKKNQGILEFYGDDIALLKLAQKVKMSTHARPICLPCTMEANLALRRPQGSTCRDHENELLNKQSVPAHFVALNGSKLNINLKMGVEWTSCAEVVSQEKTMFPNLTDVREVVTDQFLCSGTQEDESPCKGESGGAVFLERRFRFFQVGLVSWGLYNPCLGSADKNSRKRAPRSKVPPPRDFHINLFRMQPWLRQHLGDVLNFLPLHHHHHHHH

In test [3] the target is T3, human C2 N380A (human, UniProt P06681 21-752).
T3 sequence: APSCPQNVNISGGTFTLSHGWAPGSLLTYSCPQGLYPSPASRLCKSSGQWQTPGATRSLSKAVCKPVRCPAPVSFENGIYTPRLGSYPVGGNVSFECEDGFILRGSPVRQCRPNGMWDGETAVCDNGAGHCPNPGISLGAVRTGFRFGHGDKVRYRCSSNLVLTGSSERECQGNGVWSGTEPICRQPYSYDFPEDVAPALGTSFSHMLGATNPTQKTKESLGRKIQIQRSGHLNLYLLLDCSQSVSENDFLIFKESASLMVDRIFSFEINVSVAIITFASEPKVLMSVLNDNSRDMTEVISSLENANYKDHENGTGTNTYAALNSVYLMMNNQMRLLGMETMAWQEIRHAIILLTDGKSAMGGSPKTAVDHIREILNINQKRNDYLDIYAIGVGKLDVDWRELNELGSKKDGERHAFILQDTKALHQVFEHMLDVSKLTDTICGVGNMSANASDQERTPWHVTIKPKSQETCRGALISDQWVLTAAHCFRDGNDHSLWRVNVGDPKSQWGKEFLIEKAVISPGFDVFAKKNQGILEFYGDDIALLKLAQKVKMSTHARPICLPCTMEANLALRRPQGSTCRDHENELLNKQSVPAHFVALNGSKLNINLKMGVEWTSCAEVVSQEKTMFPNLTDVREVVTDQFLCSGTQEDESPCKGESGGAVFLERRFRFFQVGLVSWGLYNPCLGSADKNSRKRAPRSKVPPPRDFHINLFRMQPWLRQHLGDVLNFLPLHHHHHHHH

B1: RF16-226 (antibody, human IgG4 S228P, lambda)
heavy: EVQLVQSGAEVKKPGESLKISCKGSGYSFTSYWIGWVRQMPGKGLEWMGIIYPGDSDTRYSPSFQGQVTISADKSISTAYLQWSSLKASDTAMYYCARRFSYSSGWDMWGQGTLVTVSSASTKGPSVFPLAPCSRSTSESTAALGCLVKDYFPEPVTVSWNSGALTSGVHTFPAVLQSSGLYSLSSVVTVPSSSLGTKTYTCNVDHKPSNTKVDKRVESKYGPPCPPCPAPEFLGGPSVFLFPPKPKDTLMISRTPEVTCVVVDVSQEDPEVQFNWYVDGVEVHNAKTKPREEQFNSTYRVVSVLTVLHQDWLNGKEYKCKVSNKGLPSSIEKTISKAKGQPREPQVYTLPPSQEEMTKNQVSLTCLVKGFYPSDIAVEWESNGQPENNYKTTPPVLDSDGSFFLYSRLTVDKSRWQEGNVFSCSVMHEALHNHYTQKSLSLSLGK
light: SYELTQPPSVSVSPGQTARITCSGDALTSKYVAWYQQKSGLAPLLVIYEDTRRPSGIPAKFSGSSSGSVATLTISGAHGDDEADYYCYSTDASGHQRVFGGGTKLTVLSQPKAAPSVTLFPPSSEELQANKATLVCLISDFYPGAVTVAWKADGSPVKAGVETTKPSKQSNNKYAASSYLSLTPEQWKSHRSYSCQVTHEGSTVEKTVAPTECS
notes: pH-dependent anti-C2 antibody from a phage display library; also called WT
Usually Kd stands for a measure of binding affinity in units of concentration. A high value points to lower affinity. With B1, the values for the Kd in test [1], in test [2] and in test [3] were 0.009 µM, 0.0101 µM and 0.0151 µM, respectively.
